Test results published in the supplement of paper PMC12764529.
± gives the half width of the 95% confidence interval.

Columns and labels:
[1] = folding stability dG unfold from chymotrypsin proteolysis; higher = more stable
Procedure, shortened: (§1)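 How resistant each design was to proteolysis was captured as K50, inferred by Bayesian fitting of sequencing counts. Unfolding free energy was then derived relative to a sequence-predicted unfolded-state K50 and a shared folded-state K50, per protease or combined. Digestion used trypsin and chymotrypsin at 11 threefold-diluted concentrations plus a no-protease condition, on mini-proteins under 80 residues without cysteine in a PA-tagged cDNA display construct. Designs were kept only when AlphaFold2 dimer inter-PAE was above 15.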

[2] = folding stability dG unfold from trypsin proteolysis; higher = more stable
Procedure, shortened: as §1

[3] = folding stability dG unfold (combined trypsin and chymotrypsin); higher = more stable
Procedure, shortened: as §1

| Sequence | folding stability dG unfold [1] [kcal/mol] | folding stability dG unfold [2] [kcal/mol] | folding stability dG unfold [3] [kcal/mol] |
| --- | --- | --- | --- |
| SAGGSAGGSAGGKIEIKTFPDGYVLAKIEFPDEDKALVILAKVKPNPGKVLEAIIRPADSAGGSAGGSAGGS [r10_613_TrMRF] | 1.51 ± 0.062 | 1.2 ± 0.025 | 1.38 ± 0.097 |
| SAGGSAGGSAMKTLVIEGLSLEEIEELAKEIPGKTVRIVFKDGSVITIYPDGKIEIEPLPESAGGSAGGSAG [r3_269_TrROS_Hall] | 2.64 ± 0.031 | 1.75 ± 0.059 | 2.37 ± 0.054 |
| SAGGSAGGSAKPKVVLVEYDEKTGKFKIVFPDGKELEITGLTPEQIKELAKSLGADYVIIESAGGSAGGSAG [r3_78_TrMRF] | 4.06 ± 0.098 | 3.38 ± 0.12 | 3.83 ± 0.09 |
| SAGGSAGGSAGGSMSGVFSTETVFLEKTLPDGSRVEALTTIETYLPLPPLPPFKFPSAVSAGGSAGGSAGGS [r4_325_JUSTAS] | 0.415 ± 0.13 | 0.13 ± 0.1 | 0.437 ± 0.26 |
| SEFELKIEEEEDPATGVLRVTVTFNTSLEDAKEKLKELLKESGLNAVIKSVEEKKVGPEVTITFEIEIPPSA [r9_164_JUSTAS] | 3.27 ± 0.052 | 2.71 ± 0.065 | 3.05 ± 0.057 |
| SAGGKMLVKIKIKVTIYDKNGKPVKEVELELVFPSLEDLLNALKSLSPEKIKKVEIVSIEEIDEEDLSAGGS [r16_677_TrROS_Hall] | 4.06 ± 0.32 | 3.5 ± 0.26 | 3.73 ± 0.21 |
| SAGGSAGMPPDEPVVKTTVIPTSTAVKDAAGNPLTPEELAAAVKAAYPDVEVSFGPGNTLTITLTRSAGGSA [r15_645_JUSTAS] | 1.11 ± 0.05 | 1.33 ± 0.059 | 1.25 ± 0.091 |
| SAGGSAKKEVYKINIKVYNKNGKKVKEIKIELPEELKGKTIEEIAKELAKKLNIEKIEVKIEPVKPSAGGSA [r15_333_TrROS_Hall] | 3.19 ± 0.1 | 1.61 ± 0.18 | 2.78 ± 0.21 |
| SAGGSAGGSAPMEIWVLIDSPEKAKDLAKEIAHELQQSGIKIKVEVEQPPNGYYLVKIRFDSAGGSAGGSAG [r3_211_TrROS] | 1.81 ± 0.11 | 1.89 ± 0.14 | 1.91 ± 0.22 |
| SAGGSAGPPKPGKIELEFEDPSGGKKYKVDIYIYPNNEVKTKALNPDGTPIPEEEIKKILKKLGLKSAGGSA [r15_872_JUSTAS] | 1.75 ± 0.12 | 0.37 ± 0.082 | 1.29 ± 0.26 |
| SAGGSAGGSAGGSGMTSTTYRLPEGNVVLVETFDPATGTVTLEIRGPPSVERTLTLPVASAGGSAGGSAGGS [r4_443_JUSTAS] | 3.64 ± 0.088 | 2.63 ± 0.29 | 3.21 ± 0.24 |
| SAGGSAGGPNWVKFPIMFEMPIPVVPKMEKDPDGENRMEPVKPVRISIMIELTLPPDDLEDLIKSAGGSAGG [r6_120_TrROS] | 2.28 ± 0.11 | 1.41 ± 0.083 | 1.83 ± 0.18 |
| SMEIKIEITYDKDTNYLVIKVTIKLKTKTVDKKTKKVTEKEEEITLTLVIKLKPLKPGQKLKLEIKLFPESA [r9_1058_TrROS_Hall] | 4.93 ± 0.33 | 3.24 ± 0.22 | 4.4 ± 0.44 |
| SAGGSAGGSAGGSIEPITIILPDKIIRIYRFEDGTIVEIIDPETGKPTFISLEDAKKLIGSAGGSAGGSAGG [r7_372_TrMRF] | 2.81 ± 0.043 | 2.33 ± 0.14 | 2.61 ± 0.16 |
| SAGGGPVTVTVTFKPPSTGLTSTVTLPFPNVSSYEEAKERAEELAKEAGGPIETITFTDPATGKAHPLSAGG [r13_771_JUSTAS] | 0.213 ± 0.27 | 0.449 ± 0.068 | 0.646 ± 0.23 |
| SAGGSKTVTVTVRIKVTNEDGEELTVTARLTYNEETGEVTVEIEMSPEALERLRELFPDVKIEIYPSAGGSA [r2_409_TrROS_Hall] | 3.09 ± 0.13 | 4.08 ± 0.22 | 3.9 ± 0.32 |
| SAGGSAGGSAGGMKKPILLPGETEEDVLERIKKLPKDYKVTIEKLDDDKLLVTITSPKLGSAGGSAGGSAGG [r7_662_JUSTAS] | -0.5 ± 0.51 | 0.877 ± 0.14 | 0.58 ± 0.33 |
| SAGGSAGGGFILEVDPEKGVAVAYFDPSTGEVVVAVPEGPVYRFASAEEVVAATGKPVVIVPATSAGGSAGG [r6_752_TrMRF] | 0.702 ± 0.044 | 1.17 ± 0.024 | 0.966 ± 0.054 |
| SAGAPLEVPGPLVTVTEEEVPGKPLVFIPTPDGLIVVDLVTGKAERYPLYSEEPIVLDVPPGVVIELPSAGG [r19_138_JUSTAS] | 0.398 ± 0.13 | 1.02 ± 0.073 | 0.819 ± 0.077 |
| SAGGSALPDIEVEELVRRLLELLEEDQPFRIVVFPPGGRWLTLDELLNVPAEEIPDLVVLVFVPDLSAGGSA [r15_144_TrMRF] | 3.49 ± 0.06 | 3.04 ± 0.091 | 3.3 ± 0.088 |
| SAGGSAGGSAGMPEKVTLTFERSSEVFDPKLGKWRTLPSTEVVEFDSEEEAEELKEKLGLSAGGSAGGSAGG [r11_984_JUSTAS] | 0.575 ± 0.36 | -0.506 ± 0.55 | 0.123 ± 0.31 |

| Sequence | folding stability dG unfold [1] [kcal/mol] | folding stability dG unfold [2] [kcal/mol] | folding stability dG unfold [3] [kcal/mol] |
| --- | --- | --- | --- |
| SAGGSAGGSMRVRFLVTEPGLGPETAALRVERRLLEEYPVRVKGVRVRTRPDGGYLVVVEVEPSAGGSAGGS [r12_781_TrMRF] | 1.03 ± 0.1 | 0.673 ± 0.076 | 0.94 ± 0.088 |
| SAGGSAGGSAGSVTVTFISLEEGERYLVLTELRFGDYGIESRSTRIEVSDEKLEELKKAFSAGGSAGGSAGG [r11_47_TrMRF] | 2.12 ± 0.036 | 1.52 ± 0.072 | 2 ± 0.12 |
| SAGGMPVTTTPRTVELPDRRVEVIDRTFPNGPPRTTVVVRDPAGNLVATREFTGPEWEEWLRAEGALLSAGG [r19_90_JUSTAS] | 1.06 ± 0.035 | -0.606 ± 0.17 | 0.707 ± 0.048 |
| SAGGMITLEIELEDGTKIKIEITRLVSYDEEKGYAIFEAKITVEKDGKKFEKTITIIVKKGTKPGEIISAGG [r13_823_TrROS_Hall] | 4.01 ± 0.25 | 4.45 ± 0.43 | 4.19 ± 0.38 |
| SAGGSAGGSAMTLNVPDAGGKTYTVEVLSYDPVKNTWTLLNPSTSETITITAEEAAKIKAAASAGGSAGGSA [r18_161_JUSTAS] | 2.01 ± 0.066 | 2.01 ± 0.072 | 2.1 ± 0.11 |
| SAGGVDKGPPDAEVSREVLPRKLPNGKELLEEIRTRVLASGSLLVDRTIRDPNSDKVESEELVDPGASAGGS [r8_129_JUSTAS] | -0.0363 ± 0.16 | 0.021 ± 0.31 | -0.0613 ± 0.32 |
| SAGGSAGGSSSMVVIEKEFPDLTPEEVEKLAKEIEEKNPELGKVEVKFKPKKKPKPPLTPEAKKSAGGSAGG [r6_825_JUSTAS] | 1.29 ± 0.036 | -0.672 ± 0.21 | 0.878 ± 0.11 |
| SAGGDMWMIKVEHPNGRPFQIMINPNKPEISIQFNDGETRTFPIPKDYTIEDLAKELPPGYKVEIHPMSAGG [r13_696_TrROS] | 2.46 ± 0.051 | 2.25 ± 0.1 | 2.4 ± 0.17 |
| SAGGSAGGSAGGSEGAPIRVTLTGTRTETRTRPDGSPVTDSGTDTVEFTLDLYDPEKSGSAGGSAGGSAGGS [r4_450_TrMRF] | -0.0249 ± 0.13 | -1.4 ± 0.66 | -0.363 ± 0.21 |
| SAGGSAGGSAGGMPPGTVVRSEVVRTETFTETITLPSGETATTTVTTTTTTEVEVEQPLSAGGSAGGSAGGS [r10_297_JUSTAS] | 0.469 ± 0.047 | 0.233 ± 0.079 | 0.54 ± 0.22 |
| SAGGKKKVTIEIRKNPEEPGKYIIRVKVDGKEIEIEVSEEDLEEILAALKKLLPPGAKIEKIEIRELPSAGG [r13_519_TrROS_Hall] | 3.85 ± 0.081 | 2.38 ± 0.098 | 3.45 ± 0.12 |
| SKIKIEVDEETGVITVTVEVDNLSEEEILDKLKEELEKLGFEVEVKVVKIEEVNGKVVVTVEIKIKPEKLSA [r9_347_TrROS_Hall] | 0.9 ± 0.073 | 1.75 ± 0.11 | 1.45 ± 0.093 |
| SAGGSAGGSAGGSGPSVVLVSLPDGSYIAFPSGADVNIEIPSSSSGARIVAVIPLSELSSAGGSAGGSAGGS [r4_122_TrMRF] | 0.714 ± 0.024 | 0.111 ± 0.059 | 0.518 ± 0.11 |
| SAGMTTEKSPSGVGRVYLPTRTLELELLPDGTVVLRFPDGTEVVHPLSPEEAAAVRAELRARGLVVRPLSAG [r5_753_JUSTAS] | 1.81 ± 0.092 | 1.59 ± 0.062 | 1.7 ± 0.1 |
| SAGGSKKKIYKIKIKIEVINEETGEKKTVEIEIEAESLEEALAAIAKALLPEGQTVKIVDIEIEEVSAGGSA [r2_320_TrROS_Hall] | 3.89 ± 0.079 | 3.42 ± 0.069 | 3.73 ± 0.085 |
| SAGGSAPDDVEVEIKNIHYNPNWGYIMITIKVDGPVDSIEIELPNGWEISVMRDKDGTMTIMFPFPSAGGSA [r15_736_TrROS] | 3.29 ± 0.18 | 2.43 ± 0.1 | 3.15 ± 0.32 |
| SAGGSAGGSMKVYKLPGGYTVTVEPVDGGTLVTITLPDGSVKTKFVPPDEPVVVDPNGAKITVSAGGSAGGS [r12_281_JUSTAS] | 2.55 ± 0.036 | 1.85 ± 0.071 | 2.29 ± 0.077 |
| SIEVEKTPDGKFEIENDNGWKVEIEVFPGMIEIKIKPVKVYVPDGKWFETPEEAEKMQEKNGVPITEDDLSA [r9_660_TrROS] | 1.08 ± 0.071 | 0.615 ± 0.12 | 0.743 ± 0.19 |
| SAGGSAGGSAMPTYDNPDSLSIEEVKEKVAKEAKEKYPGKSNITVPVKFSDGTEYTVTIKIESAGGSAGGSA [r18_449_JUSTAS] | -0.771 ± 0.21 | -0.288 ± 0.05 | -0.405 ± 0.21 |
| SAGGSAGGSAGGPPSVPITITLIILFPDGYFIVIELTIEVPPDGEIEIKIKILHIFPVKSAGGSAGGSAGGS [r10_1139_TrROS] | 3.76 ± 0.12 | 3.1 ± 0.093 | 3.6 ± 0.12 |
| SAGGKKKKTIVIVLEVSEEEAEKIIEALKKELEKKGFKIEKIEVRKVPDKPMVIVTIKLENGEELTFISAGG [r13_421_TrROS_Hall] | 2.64 ± 0.055 | 1.97 ± 0.052 | 2.44 ± 0.073 |
